Experimental data: patent publication US20140227293A1 (TRUSTEES OF BOSTON UNIVERSITY, published 2014)

Target: the molecule itself
Assay: BS3 chemical cross-linking of PAE cells expressing IGPR-1 (confluent versus sparse), anti-IGPR-1 Western blot
Procedure: To determine whether IGPR-1 is involved in cell-cell interaction inventors subjected PAE cells expressing IGPR-1 and ΔN-IGPR-1 to aggregation/cell-cell adhesion assay. […] To further establish role of IGPR-1 in cell-cell interaction, the inventors investigated dimerization of IGPR-1 particularly its possible trans-dimerization. Inventors reasoned that if cells are plated in confluent condition, IGPR-1 could form trans-dimerization and possibly cis-dimerization (see FIG. 9C). However, plating the cells in a sparse condition, IGPR-1 will be less able to form trans-dimerization.

B1: immunoglobulin containing and proline rich receptor-1 (IGPR-1), human, full length, ectopically expressed in PAE cells (receptor)
chain: LSVQQGPNLLQVRQGSQATLVCQVDQATAWERLRVKWTKDGAILCQPYITNGSLSLGVCGPQGRLSWQAPSHLTLQLDPVSLNHSGAYVCWAAVEIPELEEAEGNITRLFVDPDDPTQNRNRIASFPGFLFVLLGVGSMGVAAIVWGAWFWGRRSCQQRDSGNSPGNAFYSNVLYRPRGPPKKSEDCSGEGKDQRGQSIYSTSFPQPAPRQPHLASRPCPSPRPCPSPRPGHPVSMVRVSPRPSPTQQPRPKGFPKVGEE
modifications: N-glycosylated (apparent 55 kDa, 31 kDa after PNGase F)
notes: Expressed from the retroviral vector pMSCV.puro in PAE (porcine aortic endothelial) cells; Used on intact cells (aggregation, adhesion, BS3 cross-linking) and as whole cell lysate (GST pull-down, co-immunoprecipitation, Western blot); also called IGRP-1; TMIGD2
B1: binds.
